System: anti-sublancin antibodies
Assay: binding of anti-sublancin polyclonal antibodies to the displayed peptide (peroxidase colour reaction, magnetic beads)
Settings: rabbit antibodies raised against sublancin-KLH conjugate
Method: The transformed host was cultured in Medium A to allow the Lantibody Display Peptide to be expressed. Expression was monitored by observing the appearance of the Display Peptide in the cytoplasm of the cell, the membrane, the cell wall and in the extracellular medium. The peptide was detected using polyclonal antibodies raised in rabbits against a sublancin-KLH conjugate as an antigen.
To explore this hypothesis, cells expressing the Lantibody Display Peptide as shown in FIG. 8 were centrifuged out of the culture medium and resuspended in buffer. The cell suspension was treated with anti-sublancin antibodies, and washed to remove any unbound antibody. To determine whether anti-sublancin antibodies were bound to the surface of the cells, goat anti-rabbit antibodies that were conjugated with horseradish peroxidase were added and allowed to adsorb to any antibodies on the surface of the cells. The cells were washed and the peroxidase color reagent was added.

B1: sublancin Display Peptide: mature sublancin segment (1–37), a 20-residue polyglycine spacer (38–57) and the subtilin leader segment (58–81) (protein)
chain: MEKLFKEVKLEELENQKGSGLGKAQCAALWLQCASGGTIGCGGGAVACQNYRQFCRGGGGGGGGGGGGGGGGGGGGMSKFDDFDLDVVKVSKQDSKITPQ
modifications: The peptide sequence of sunA-PG20-SL.
Q: For B1, which “binding to polyclonal anti-sublancin antibody” value is on record?
A: recognize and bind to a target substrate

Q: What about the “binding to polyclonal anti-sublancin antibody” value (listed as Sublancin Display Peptide) of the same molecule?
A: responsible for the binding to sublancin antibodies

— patent publication US7033766B2, “Construction and screening of lantibody display libraries” (University of Maryland Office of Technology …, priority 2000, dated 2006)
